{"source": "paper PMC10786891", "about": "“Massively parallel profiling of RNA-targeting CRISPR-Cas13d”", "binders": {"B1": {"name": "target 1 G13A,A14C (mixed)", "RNA 1": "CACCCGUGCAAAAAUGCAGGGGUCUAAAACUGAGCGGAUAACCUCUCUAUGG", "RNA 2": "GGGAAUGGAUCCACAUCUACGAAUUCGUACCAUAGAGCAGUUAUCCGCUCACCGAGAUCGGAAGAGCACACGU"}, "B2": {"name": "target 1 insG 3' of 14,insC 3' of 5 (mixed)", "RNA 1": "B1 RNA 1", "RNA 2": "GGGAAUGGAUCCACAUCUACGAAUUCGUACCAUAGAGAGGGUUAUCCGCCUCACCGAGAUCGGAAGAGCACACGU"}, "B3": {"name": "target 1 C4G,A14G (mixed)", "RNA 1": "B1 RNA 1", "RNA 2": "B1 RNA 2 with C38G, A39G, C48G"}, "B4": {"name": "target 1 C2A,C6A (mixed)", "RNA 1": "B1 RNA 1", "RNA 2": "B1 RNA 2 with C38A, A39G, C46A, C50A"}, "B5": {"name": "target 1 complement block 14-16 (mixed)", "RNA 1": "B1 RNA 1", "RNA 2": "B1 RNA 2 with A36U, G37C, C38U, A39G"}, "B6": {"name": "target 1 insA 3' of 22,insA 3' of 8 (mixed)", "RNA 1": "B1 RNA 1", "RNA 2": "GGGAAUGGAUCCACAUCUACGAAUUCGUACACAUAGAGAGGUUAUACCGCUCACCGAGAUCGGAAGAGCACACGU"}, "B7": {"name": "target 1 insC 3' of 18,insG 3' of 7 (mixed)", "RNA 1": "B1 RNA 1", "RNA 2": "B6 RNA 2 with A31C, C32A, A33U, U34A, A35C, A46C, C47G"}, "B8": {"name": "target 1 insC 3' of 20,insA 3' of 17 (mixed)", "RNA 1": "B1 RNA 1", "RNA 2": "GGGAAUGGAUCCACAUCUACGAAUUCGUACCACUAGAAGAGGUUAUCCGCUCACCGAGAUCGGAAGAGCACACGU"}, "B9": {"name": "target 1 C7A,A16C (mixed)", "RNA 1": "B1 RNA 1", "RNA 2": "B1 RNA 2 with A36C, C38A, A39G, C45A"}, "B10": {"name": "target 1 insG 3' of 10,insG 3' of 8 (mixed)", "RNA 1": "B1 RNA 1", "RNA 2": "B2 RNA 2 with G41U, U43G, C46G, G48C, C49G"}, "B11": {"name": "target 1 insG 3' of 8,insG 3' of 2 (mixed)", "RNA 1": "B1 RNA 1", "RNA 2": "B2 RNA 2 with G41U, U43A, A44U, U45G, C50U, U51C, C52G"}, "B12": {"name": "target 1 G13C,C22U (mixed)", "RNA 1": "B1 RNA 1", "RNA 2": "B1 RNA 2 with C30U, C38A, A39C"}, "B13": {"name": "target 1 C6A,U19G (mixed)", "RNA 1": "B1 RNA 1", "RNA 2": "B1 RNA 2 with U33G, C38A, A39G, C46A"}, "B14": {"name": "target 1 insA 3' of 19,insA 3' of 4 (mixed)", "RNA 1": "B1 RNA 1", "RNA 2": "B2 RNA 2 with G35A, A36G, G37A, A38G, G39A, C50A"}, "B15": {"name": "target 1 insA 3' of 7 (mixed)", "RNA 1": "B1 RNA 1", "RNA 2": "GGGAAUGGAUCCACAUCUACGAAUUCGUACCAUAGAGAGGUUAUCACGCUCACCGAGAUCGGAAGAGCACACGU"}, "B16": {"name": "target 1 insU 3' of 13 (mixed)", "RNA 1": "B1 RNA 1", "RNA 2": "B15 RNA 2 with G40U, U41G, A43U, U44A, C45U, A46C"}, "B17": {"name": "target 1 U11G,C22A (mixed)", "RNA 1": "B1 RNA 1", "RNA 2": "B1 RNA 2 with C30A, C38A, A39G, U41G"}, "B18": {"name": "target 1 U11C,G15A (mixed)", "RNA 1": "B1 RNA 1", "RNA 2": "B1 RNA 2 with G37A, C38A, A39G, U41C"}, "B19": {"name": "target 1 C2U,C21A (mixed)", "RNA 1": "B1 RNA 1", "RNA 2": "B1 RNA 2 with C31A, C38A, A39G, C50U"}, "B20": {"name": "target 1 insU 3' of 13,insU 3' of 7 (mixed)", "RNA 1": "B1 RNA 1", "RNA 2": "B2 RNA 2 with G40U, C47U, G48C, C49G"}, "B21": {"name": "target 1 U10C,U19A (mixed)", "RNA 1": "B1 RNA 1", "RNA 2": "B1 RNA 2 with U33A, C38A, A39G, U42C"}, "B22": {"name": "target 1 insG 3' of 6,insG 3' of 4 (mixed)", "RNA 1": "B1 RNA 1", "RNA 2": "B2 RNA 2 with G41U, U43A, A44U, U45C, C47G, C50G"}, "B23": {"name": "target 1 U3A,U11G (mixed)", "RNA 1": "B1 RNA 1", "RNA 2": "B1 RNA 2 with C38A, A39G, U41G, U49A"}, "B24": {"name": "target 1 insA 3' of 3,insG 3' of 1 (mixed)", "RNA 1": "B1 RNA 1", "RNA 2": "GGGAAUGGAUCCACAUCUACGAAUUCGUACCAUAGAGAGGUUAUCCGCUACAGCCGAGAUCGGAAGAGCACACGU"}, "B25": {"name": "target 1 insG 3' of 9,insC 3' of 1 (mixed)", "RNA 1": "B1 RNA 1", "RNA 2": "B2 RNA 2 with G41U, U43A, A44G, C50U, U51C, C52A, A53C"}, "B26": {"name": "target 1 insA 3' of 3,insC 3' of 1 (mixed)", "RNA 1": "B1 RNA 1", "RNA 2": "B24 RNA 2 with G53C"}, "B27": {"name": "target 1 G17U,U19A (mixed)", "RNA 1": "B1 RNA 1", "RNA 2": "B1 RNA 2 with U33A, G35U, C38A, A39G"}, "B28": {"name": "target 1 C7G,U8G (mixed)", "RNA 1": "B1 RNA 1", "RNA 2": "B1 RNA 2 with C38A, A39G, U44G, C45G"}, "B29": {"name": "target 1 insU 3' of 17,insA 3' of 12 (mixed)", "RNA 1": "B1 RNA 1", "RNA 2": "B8 RNA 2 with C33U, U34A, A35G, G36U, A38G, G39A, A40G, G42A"}, "B30": {"name": "target 1 insC 3' of 14,insA 3' of 7 (mixed)", "RNA 1": "B1 RNA 1", "RNA 2": "B2 RNA 2 with G39C, C47A, G48C, C49G"}, "B31": {"name": "target 1 insC 3' of 19,insC 3' of 13 (mixed)", "RNA 1": "B1 RNA 1", "RNA 2": "B8 RNA 2 with C33U, U34C, A38G, G39A, A40G, G41C"}, "B32": {"name": "target 1 insG 3' of 19,insA 3' of 7 (mixed)", "RNA 1": "B1 RNA 1", "RNA 2": "B6 RNA 2 with A31C, C32A, A33U, U34G, A46C, C47A"}, "B33": {"name": "target 1 insG 3' of 18,insA 3' of 13 (mixed)", "RNA 1": "B1 RNA 1", "RNA 2": "B8 RNA 2 with C33U, U34A, A35G, A38G, G39A, A40G, G41A"}}, "target": "T1, EsCas13d, nuclease-dead (Eubacterium siraeum, UniProt B0MS50, R295A;H300A;R849A;H854A)", "T1 sequence": "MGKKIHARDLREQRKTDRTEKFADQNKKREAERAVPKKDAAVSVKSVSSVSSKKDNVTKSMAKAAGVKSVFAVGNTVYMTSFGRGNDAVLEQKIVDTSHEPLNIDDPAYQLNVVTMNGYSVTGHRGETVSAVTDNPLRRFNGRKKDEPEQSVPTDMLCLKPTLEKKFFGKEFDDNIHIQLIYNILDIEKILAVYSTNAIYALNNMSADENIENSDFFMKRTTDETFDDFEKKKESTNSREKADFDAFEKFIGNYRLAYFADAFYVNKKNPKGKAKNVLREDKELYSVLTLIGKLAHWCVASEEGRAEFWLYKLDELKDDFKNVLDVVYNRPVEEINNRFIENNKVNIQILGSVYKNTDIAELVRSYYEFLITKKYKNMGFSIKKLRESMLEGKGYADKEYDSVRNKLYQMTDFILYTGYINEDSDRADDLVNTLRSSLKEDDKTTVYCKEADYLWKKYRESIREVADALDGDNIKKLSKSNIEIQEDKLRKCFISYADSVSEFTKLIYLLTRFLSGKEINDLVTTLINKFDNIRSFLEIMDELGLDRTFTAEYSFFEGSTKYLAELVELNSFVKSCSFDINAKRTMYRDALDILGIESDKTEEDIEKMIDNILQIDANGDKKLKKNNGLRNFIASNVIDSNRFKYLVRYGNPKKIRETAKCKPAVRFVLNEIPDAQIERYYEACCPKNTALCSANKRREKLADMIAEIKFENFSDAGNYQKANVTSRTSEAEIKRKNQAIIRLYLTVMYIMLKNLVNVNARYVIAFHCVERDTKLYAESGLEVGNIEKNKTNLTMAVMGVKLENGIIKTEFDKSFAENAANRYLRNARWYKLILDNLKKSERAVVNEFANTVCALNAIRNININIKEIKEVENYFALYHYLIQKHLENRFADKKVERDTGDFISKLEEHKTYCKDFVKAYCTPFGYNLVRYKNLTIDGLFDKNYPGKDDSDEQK", "assay": "crRNA (strand 1, pre-loaded); Mg2+; 40 mM Tris-HCl pH 7.5, 150 mM NaCl, 6 mM MgCl2, 1 mM DTT, 0.1% Tween-20, 0.2 mg/ml BSA; 25 C; 10 min per concentration, then washed", "conditions": "tags: His6-TwinStrep-SUMO cleaved; N-terminal SNAP kept (SNAP-Surface 488); label: 3' end held by stalled T7 RNA polymerase", "note": "Numbering of substitutions follows the chain as printed. In names and notes the source's numbering stands."}
{"binder": "B1", "values": [{"measurement": "Kd", "result": "12 ± 0.7", "unit": "nM"}]}
{"binder": "B2", "values": [{"measurement": "Kd", "result": "12.1 ± 1", "unit": "nM"}]}
{"binder": "B3", "values": [{"measurement": "Kd", "result": "13.2 ± 1.2", "unit": "nM"}]}
{"binder": "B4", "values": [{"measurement": "Kd", "result": "4.84 ± 0.28", "unit": "nM"}]}
{"binder": "B5", "values": [{"measurement": "Kd", "result": "61 ± 9", "unit": "nM"}]}
{"binder": "B6", "values": [{"measurement": "Kd", "result": "20.9 ± 1.3", "unit": "nM"}]}
{"binder": "B7", "values": [{"measurement": "Kd", "result": "36.8 ± 2.2", "unit": "nM"}]}
{"binder": "B8", "values": [{"measurement": "Kd", "result": "8.5 ± 0.8", "unit": "nM"}]}
{"binder": "B9", "values": [{"measurement": "Kd", "result": "56.1 ± 2.7", "unit": "nM"}]}
{"binder": "B10", "values": [{"measurement": "Kd", "result": "21.8 ± 0.7", "unit": "nM"}]}
{"binder": "B11", "values": [{"measurement": "Kd", "result": "13.1 ± 0.6", "unit": "nM"}]}
{"binder": "B12", "values": [{"measurement": "Kd", "result": "62 ± 19", "unit": "nM"}]}
{"binder": "B13", "values": [{"measurement": "Kd", "result": "46 ± 4", "unit": "nM"}]}
{"binder": "B14", "values": [{"measurement": "Kd", "result": "16 ± 1.3", "unit": "nM"}]}
{"binder": "B15", "values": [{"measurement": "Kd", "result": "5.49 ± 0.21", "unit": "nM"}]}
{"binder": "B16", "values": [{"measurement": "Kd", "result": "11.4 ± 1.5", "unit": "nM"}]}
{"binder": "B17", "values": [{"measurement": "Kd", "result": "39 ± 8", "unit": "nM"}]}
{"binder": "B18", "values": [{"measurement": "Kd", "result": "27 ± 3.3", "unit": "nM"}]}
{"binder": "B19", "values": [{"measurement": "Kd", "result": "28.1 ± 3.1", "unit": "nM"}]}
{"binder": "B20", "values": [{"measurement": "Kd", "result": "13.7 ± 0.8", "unit": "nM"}]}
{"binder": "B21", "values": [{"measurement": "Kd", "result": "100 ± 40", "unit": "nM"}]}
{"binder": "B22", "values": [{"measurement": "Kd", "result": "8 ± 0.4", "unit": "nM"}]}
{"binder": "B23", "values": [{"measurement": "Kd", "result": "12.2 ± 0.7", "unit": "nM"}]}
{"binder": "B24", "values": [{"measurement": "Kd", "result": "5.69 ± 0.25", "unit": "nM"}]}
{"binder": "B25", "values": [{"measurement": "Kd", "result": "17.4 ± 1.2", "unit": "nM"}]}
{"binder": "B26", "values": [{"measurement": "Kd", "result": "23 ± 4", "unit": "nM"}]}
{"binder": "B27", "values": [{"measurement": "Kd", "result": "36.8 ± 2.9", "unit": "nM"}]}
{"binder": "B28", "values": [{"measurement": "Kd", "result": "11.5 ± 0.9", "unit": "nM"}]}
{"binder": "B29", "values": [{"measurement": "Kd", "result": "37 ± 6", "unit": "nM"}]}
{"binder": "B30", "values": [{"measurement": "Kd", "result": "47 ± 10", "unit": "nM"}]}
{"binder": "B31", "values": [{"measurement": "Kd", "result": "49 ± 15", "unit": "nM"}]}
{"binder": "B32", "values": [{"measurement": "Kd", "result": "36.7 ± 2.9", "unit": "nM"}]}
{"binder": "B33", "values": [{"measurement": "Kd", "result": "46 ± 6", "unit": "nM"}]}
